Test: yeast display, Sf9 membrane polyspecificity reagent, FACS + sequencing; frameworks hold sequencing errors
Summary of the method: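 In a synthetic yeast display library (Saccharomyces cerevisiae BJ5465), nanobody expression was induced with galactose for 36–48 hours. FACS gates were set low and high (top ~1%) using anti-HA fluorescence for expression and streptavidin fluorescence for binding of the Sf9 membrane reagent. Each polyreactivity label is drawn from the gate of origin.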

## QVQLVESGGGLVQAGGSLRLSCAASGSTFSRYAMGWYRQAPGKEREMVAAINTRGGSTYYADSVKGRFTISRDNSKNTVYLQMNSLKPEDTAVYYCARRFYGFGPYYPFDYWGQGTQVTVSS
  polyreactivity (PSR sort gate): low polyreactivity

## QVQLVESGGGLVQAGGSLRLSCAASGSTFSRYTMGWYRQAPGKERELVAAIRRSGASTYYADSVKGRFTISRDNAKITVYLQMNSLKPEDTAVYYCAVGRYRYGYWGHGTQVTVSS
  polyreactivity (PSR sort gate): high polyreactivity

## QVQLVESGGGLVQAGGSLRLSCAASGSTFSSNAMGWYRQAPGKERELVAAITGSGGSTYYADSVKGRFTISRDNAKNTVYLQMNSLKPEDTAVYYCAAKWYGITYKYEYWGQGTQVTVSS
  polyreactivity (PSR sort gate): high polyreactivity

## QVQLVESGGGLVQAGGSLRLSCAASGSTFSSNTMGWYRQAPGKERELVAAITTGGDTYYADSVKGRFTISRDNAKNTVYLQMNSLKPEDTAVYYCAATPTYWYLWSPYDYWGQGTQVTVSS
  polyreactivity (PSR sort gate): low polyreactivity

## QVQLVESGGGLVQAGGSLRLSCAASGSTFSSNTMGWYRQAPGKEREMVAAITRRGGSTYYADSVKGRFTISRDNAKNTVYLQMNCLKPEDTAVYYCAARAYGGYGYWGQGTQVPVSS
  polyreactivity (PSR sort gate): low polyreactivity

## QVQLVESGGGLVQAGGSLRLSCAASGSTFSSNVMGWYRQAPGKERELVAAITGSGSRTYYADSVKGRFTISRDNAKNTVYLQMNSLKPEDTAVYYCNTKGRSRETYGYDYWGQGTQVTVSS
  polyreactivity (PSR sort gate): high polyreactivity

## QVQLVESGGGLVQAGGSLRLSCAASGSTFSSYAMGWYRQAPGKDRELVAAISSRGGRTYYADSVKGRFTISRDNAKNTVYLQMNSLKPEDTAVYYCNAPTSALRQGKDYGYWGQGTQVTVSS
  polyreactivity (PSR sort gate): high polyreactivity

## QVQLVESGGGLVQAGGSLRLSCAASGSTFSSYAMGWYRQAPGKERELVAAINWSGGRTYYADSVKGRFTISRDNAKNTVYLQMNSLKPEDTAVYYCAAVGVYTYPYDYWGQGTQVTVSS
  polyreactivity (PSR sort gate): high polyreactivity

## QVQLVESGGGLVQAGGSLRLSCAASGSTFSSYAMGWYRQAPGKERELVAAISTRSGSTYYADSVKGRFTISRDNAKNTVYLQMNSLKPEDTAVYYCAADGFYYDDGYWGQGTQVTVSS
  polyreactivity (PSR sort gate): low polyreactivity

## QVQLVESGGGLVQAGGSLRLSCAASGSTFSSYGMGWYRQAPGKERELVAAISKRGGSTYYADSVKGRFTISRDNAKNTVYLQMNSLKPEDTAVYYCAAAVRKQGYSTLFDYWGQGTQVTVSS
  polyreactivity (PSR sort gate): high polyreactivity

## QVQLVESGGGLVQAGGSLRLSCAASGSTFSSYVMGWDRQARGKERELVAAISSIGGSTYYADSVKGRFTISRDNAKNTVYLQMNSLKPEDTAVYYCAAEPPGSTYEGGYWGQGTQVTVSS
  polyreactivity (PSR sort gate): low polyreactivity

## QVQLVESGGGLVQAGGSLRLSCAASGSTFSTNAMGCYRQAPGKERELVAAISGRGGRTYYADSVKGRFTISRDNAKNTVYLQMTSLKPEDTAVYYCNTDSYLRMDYWGQGTQVTVSS
  polyreactivity (PSR sort gate): high polyreactivity

## QVQLVESGGGLVQAGGSLRLSCAASGSTFSTNAMGWYRQAPGQERELVAAISSSSGRTYYADSVKGRFTISRDNAKNTVYLQMNSLKPEDTAVYYCAAANQGYRSGRKGVQRFDYWGQGTQVTVSS
  polyreactivity (PSR sort gate): high polyreactivity

## QVQLVESGGGLVQAGGSLRLSCAASGSTFSTNFMGWYRQAPGKERELVAAISTIGGSTYADSVKGRFTISRDNAKNTVYLQMNSLKPEDTAVYYCAAVFRVRRKTYGYWGQGTQVTVSS
  polyreactivity (PSR sort gate): high polyreactivity

## QVQLVESGGGLVQAGGSLRLSCAASGSTFSTNVMGWSRQAPGKERELVAAISTIGGSTYADSVKGRFTISRDNAKNSVYLQMNSLKPEDTAVYDCAATRRWYPTKLYGYWGQGTQVTVSS
  polyreactivity (PSR sort gate): high polyreactivity

## QVQLVESGGGLVQAGGSLRLSCAASGSTFSTYAMGWSRLAPGKERELVATISKRGGSTYYADSVKGRFTISRDNAKNTVYLQMNSLKPEDTAVYYCAARWQWLNGYYYWGQGTQVTVSS
  polyreactivity (PSR sort gate): high polyreactivity

## QVQLVESGGGLVQAGGSLRLSCAASGSTFSTYAMGWYRQAPGKERELVAAISRTGGSTYYADSVKGRFTISRDNAKNTVYLQMNSLKPEDTAVYYCATGDSGGYDYWGQGTQVTVSS
  polyreactivity (PSR sort gate): low polyreactivity

— the nanobody polyreactivity screen of Harvey et al. (2022)
